The text below walks through data of publication PMC10576006, “Structural insights into the complex of oncogenic KRas4B^G12V and Rgl2, a RalA/B activator” (Life Science Alliance, 2023).

For orientation: Kd means the equilibrium constant for the complex coming apart.

This test has as its target T1, human wildtype KRas4B 1-169 (C-terminal truncated) (human, UniProt P01116-2 1-169).
T1 construct: human wildtype KRas4B isoform, residues 1-169, lacking the C-terminal hyper-variable region; Loaded with GTP for BLI; also called KRas4B^WT; KRas (WT); source: E. coli DE3 Rosetta, purified (Ni-sepharose, TEV cleavage, SEC); not shown: His6, N-terminal, cleaved
Put plainly: BLI; Octet R8; GST fusion (0.7 uM) immobilised on anti-GST biosensors; GTP-loaded KRas4B as analyte (200 nM-15 uM for Rgl2^RA, 20 nM-5 uM for BRAF^RBD); GF buffer (20 mM Tris pH 7.65, 100 mM NaCl, 5 mM MgCl2, 1 mM TCEP); 20°C; double referencing; 1:1 binding model. The note with it: both partners purified. For orientation: Biolayer interferometry detects binding as a change in optical thickness at a sensor tip.

B1: GST-Rgl2^RA (Ras association domain of human Rgl2, residues 643-740, fused with GST) (domain or fragment, UniProt O15211 643-740, looked up)
chain: GPGASDCRIIRVQMELGEDGSVYKSILVTSQDKAPSVISRVLKKNNRDSAVASEYELVQLLPGERELTIPASANVFYAMDGASHDFLLRQRRRSSTAT
notes: human Rgl2, residues 643-740, holding the Ras-associating (RA) domain (648-735 in UniProt O15211); A TEV site lies between GST and Rgl2^RA (vector pLEICS2); source: E. coli DE3 Rosetta, purified (glutathione beads, SEC); not shown: GST, N-terminal, kept
B1 gave a Kd of approximately 1480 nM.
